Patent publication US7364887B2, “Use of PAK inhibitor for the treatment of a joint disease” (Sanofi-Aventis Deutschland GmbH, priority 2003, dated 2008)

What was measured:
Type in all cases: cell-based, human
[1] = test system: IL-1β induced expression of MMP13 in SW1353 cells; assay: MMP13 protein in supernatants by ELISA after overexpression of PAK1-ID in SW1353 cells; conditions: SW1353 cells transfected with pCEP4_PAK1-ID vs void vector, ELISA of supernatant
Method: The PAK1 inhibitory domain was subcloned into the pCEP4 vector and transfected into SW1353 cells. Where indicated, IL-1β was used as a stimulus at a concentration of 10 ng/ml for 24 h. Supernatants were collected and the amount of MMP13 protein was determined by ELISA. Values are shown in arbitrary units and represent at least 3 independent results ±SD. The chequered column represents the experiments with the vector pCEP4 (void vector) and the black column represents the experiments with the vector pCEP4_PAK1-ID.
(§1) (Kozak sequence is underlined, hemagglutinin (HA) tag is in bold) and 5′-[…]-3′(SEQ ID NO: 12) (MWG, Biotech AG, Germany). […]
(§2) Cultures of human SW1353 chondrosarcoma were grown in Dulbecco's modified Eagles's medium (DMEM) containing 10% fetal calf serum (FCS) and penicillin/streptomycin (37° C., 5% CO2). […] The transfection efficiency was examined with a FACScan (Becton Dickinson Immunocytometry Systems, Inc., Mountain View, Calif., U.S.A.) and on an inverted fluorescence microscope. […]
(§3) Human embryonic kidney (HEK) 293 were maintained in Dulbecco's modified Eagle's medium supplemented with 10% fetal calf serum. […] Culture supernatant were removed and expression of IL-8 (R&D Systems, Inc., Minneapolis, Minn., U.S.A.), PGE2 (SpiBiom Inc.), and MMP-13 (Amersham Pharmacia Biotech, Inc.) was monitored by ELISA according to the procedure supplied by the manufacturer. […]

[2] = test system: IL-1β induced expression of IL-8 in HEK293 cells; assay: IL-8 protein in supernatants by ELISA after transient transfection of PAK1-ID in HEK293 cells; conditions: HEK293 cells transiently transfected with pCDNA3.1_PAK1-ID vs void vector; IL-1β 10 ng/ml, time course; ELISA of supernatant
Method: The PAK1 inhibitory domain subcloned into the pCDNA3.1 vector was transiently transfected into HEK293 cells. Cells were stimulated with IL-1β at a concentration of 10 ng/ml for the indicated time periods. Supernatants were collected and the amount of IL-8 protein was determined by ELISA. Values in arbitrary units represent the mean of two experiments. The circles represents the experiments with the vector pCDNA3.1_PAK1-ID plus IL-1β and the squares represent the experiments with the vector pCDNA3.1 (void vector) plus IL-1β.
as §1
Human embryonic kidney (HEK) 293 were maintained in Dulbecco's modified Eagle's medium supplemented with 10% fetal calf serum. […] Culture supernatant were removed and expression of IL-8 (R&D Systems, Inc., Minneapolis, Minn., U.S.A.), PGE2 (SpiBiom Inc.), and MMP-13 (Amersham Pharmacia Biotech, Inc.) was monitored by ELISA according to the procedure supplied by the manufacturer.
For the analysis of MMP13, IL-8 and PGE2 protein levels, supernatants of cell cultures were determined by ELISA for MMP13 (Amersham Pharmacia Biotech, Inc.), IL-8 (R&D Systems, Inc. Minneapolis, Minn., U.S.A.) and PGE2 (SpiBio) as described by the supplier. […]

[3] = test system: IL-1β induced expression of PGE2 in SW1353 cells; assay: PGE2 in supernatants by ELISA after overexpression of PAK1-ID in SW1353 cells; conditions: SW1353 cells transfected with pCEP4_PAK1-ID vs void vector; IL-1β and TNFα both 10 ng/ml for 24 h; ELISA of supernatant
Method: The PAK1 inhibitory domain was subcloned into the pCEP4 vector and transfected into SW1353 cells. Cells were stimulated with a combination of IL-1β and TNFα both at a concentration of 10 ng/ml for 24 h. Supernatants were collected and the amount of MMP13 protein was determined by ELISA. Values in arbitrary units represent the mean of two experiments. The punctured column represents the experiments with no vector plus IL1β and TNFα. The chequered column represents the experiments with the vector pCEP4 (void vector) plus IL1β and TNFα. The black column represents the experiments with the vector pCEP4_PAK1-ID plus IL1β and TNFα. […]
as §2, §3

B1: PAK1-ID: Autoinhibitory domain of PAK1, residues 83 to 149 (SEQ ID NO: 6), HA-tagged, overexpressed from pCEP4 or pcDNA3.1 vector in cells (protein, listed as Homo sapiens)
chain: HTIHVGFDAVTGEFTGMPEQWARLLQTSNITKSEQKKNPQAVLDVLEFYNSKKTSNSQKYMSFTDKS
modifications: HA tag
inhibition of the IL-1β-induced expression of MMP13 ([1]; IL-1β 10 ng/ml for 24 h): ~55%
inhibition of basal MMP13 secretion in non-stimulated cells ([1]; non-stimulated (no IL-1β)): > 80%
effect on IL-1β induced expression of IL-8 [2]: represses the IL-1β induced expression of IL-8
inhibition of IL-1β induced expression of PGE2 [3]: more than 50%
